The target in experiment [1] is mCherry-BICD2N-EGFR (Ex19Del/T790M/C797S)-HomoFC.
For experiment [2] the target is unchanged. Put plainly: split reporter.
For experiment [3], the target named is mCherry-EGFR (L858R/T790M)-HomoFC (UniProt P00533). Put plainly: split reporter.

Consider “mCherry-BICD2N-EGFR (Ex19Del/T790M/C797S)-HomoFC (from UniProt Q8TD16;P00533) (receptor)”, for which the C/N ERK-KTR ratio after EGF stimulation in experiment [1] was 0.64. In experiment [2], the HomoFC/mCherry ratio (EGF) was 0.12, the fold lower oligomer signal than WT EGFR at the basal level was found to be 3.3 fold and the fold reduction of the oligomer signal against the nonfused mutant is 18.8 fold.

In experiment [3], “YFP–DARPin (E69)–BICD2N (from UniProt Q8TD16 1-594) (designed binder)” showed a percent reduction of EGFR oligomerization (HomoFC) of 50%.

Values taken from PMC12680046.
